By Kd is commonly meant the free concentration of one partner at which half of the binding sites on the other are occupied at equilibrium, for simple one-to-one binding. The stoichiometry N is the number of molecules, sites or subunits per partner or assembly.

Data on five molecules can be found in paper PMC8239744, “Mutations in myosin S2 alter cardiac myosin-binding protein-C interaction in hypertrophic cardiomyopathy in a phosphorylation-dependent manner” (The Journal of Biological Chemistry, 2021).

Assay [1] deals with human β-myosin heavy chain, proximal S2 (hS2) proximal S2, 838-963 (UniProt P12883). Nature of the assay: solid-phase binding assay (SPBA). The settings on record: sites S273,S282,S302.
Assay [2] concerns the target PKA-phosphorylated human C0-C2 (hC0-C2p) (human) (UniProt Q14896). Kind of assay: ITC; 350 μM hS2 titrated into 20 μM hC0-C2 (with or without PKA phosphorylation) in PBS at 20 °C; MicroCal VP-ITC; 25 injections of 10 μl at 180 s; four-parameter logistic fit; Kd calculated from the reciprocal of the slope.
In assay [3] the target is human C0-C2 region of cardiac myosin-binding protein-C (hC0-C2) (human) (UniProt Q14896). The description is as above.
For assay [4], the target named is PKA-phosphorylated human C0-C2 (hC0-C2p) (human) (UniProt Q14896). Kind of assay: solid-phase binding assay (SPBA); 20 μM C0-C2 (bait) adsorbed onto microtiter plates overnight at 4 °C; 0-20 μM recombinant myosin S2 (prey) added; bound S2 detected with polyclonal anti-S2 antibody and Alexa Fluor 568 secondary antibody; intensity normalised to that at maximal S2; one-phase association fit for Bmax and Kd.

Assay [5] addresses human C0-C2 region of cardiac myosin-binding protein-C (hC0-C2) (human) (UniProt Q14896). Described as above.
The target in assay [6] is mouse recombinant C0-C2 protein, phospho-ablated (mC0-C2^AAA) (mouse) (UniProt O70468). The assay is described as above.
Assay [7] concerns the target mouse recombinant C0-C2 protein, phospho-mimetic (mC0-C2^DDD) (mouse) (UniProt O70468). The assay is described as above.
Assay [8] deals with mouse recombinant C0-C2 protein, WT (mC0-C2^Wt) (mouse, UniProt O70468 1-448). Described as above. The settings on record: both partners purified.
Chain of mouse recombinant C0-C2 protein, WT (mC0-C2^Wt) (O70468 1-448): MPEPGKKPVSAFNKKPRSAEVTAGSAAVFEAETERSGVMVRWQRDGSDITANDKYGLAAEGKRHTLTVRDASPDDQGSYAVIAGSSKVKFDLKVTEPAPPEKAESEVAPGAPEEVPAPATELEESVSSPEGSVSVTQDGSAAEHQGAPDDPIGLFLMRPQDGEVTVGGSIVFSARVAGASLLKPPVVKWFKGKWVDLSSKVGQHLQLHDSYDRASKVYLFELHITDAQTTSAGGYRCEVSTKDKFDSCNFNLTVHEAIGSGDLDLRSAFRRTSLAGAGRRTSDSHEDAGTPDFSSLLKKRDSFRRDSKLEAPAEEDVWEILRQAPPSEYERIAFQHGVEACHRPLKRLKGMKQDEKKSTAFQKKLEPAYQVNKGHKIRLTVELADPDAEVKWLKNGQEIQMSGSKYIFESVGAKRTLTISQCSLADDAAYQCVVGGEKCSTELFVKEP

Chain of mouse recombinant C0-C2 protein, phospho-ablated (mC0-C2^AAA) (mouse) (O70468 other isoform, or with tags, fused parts or gaps): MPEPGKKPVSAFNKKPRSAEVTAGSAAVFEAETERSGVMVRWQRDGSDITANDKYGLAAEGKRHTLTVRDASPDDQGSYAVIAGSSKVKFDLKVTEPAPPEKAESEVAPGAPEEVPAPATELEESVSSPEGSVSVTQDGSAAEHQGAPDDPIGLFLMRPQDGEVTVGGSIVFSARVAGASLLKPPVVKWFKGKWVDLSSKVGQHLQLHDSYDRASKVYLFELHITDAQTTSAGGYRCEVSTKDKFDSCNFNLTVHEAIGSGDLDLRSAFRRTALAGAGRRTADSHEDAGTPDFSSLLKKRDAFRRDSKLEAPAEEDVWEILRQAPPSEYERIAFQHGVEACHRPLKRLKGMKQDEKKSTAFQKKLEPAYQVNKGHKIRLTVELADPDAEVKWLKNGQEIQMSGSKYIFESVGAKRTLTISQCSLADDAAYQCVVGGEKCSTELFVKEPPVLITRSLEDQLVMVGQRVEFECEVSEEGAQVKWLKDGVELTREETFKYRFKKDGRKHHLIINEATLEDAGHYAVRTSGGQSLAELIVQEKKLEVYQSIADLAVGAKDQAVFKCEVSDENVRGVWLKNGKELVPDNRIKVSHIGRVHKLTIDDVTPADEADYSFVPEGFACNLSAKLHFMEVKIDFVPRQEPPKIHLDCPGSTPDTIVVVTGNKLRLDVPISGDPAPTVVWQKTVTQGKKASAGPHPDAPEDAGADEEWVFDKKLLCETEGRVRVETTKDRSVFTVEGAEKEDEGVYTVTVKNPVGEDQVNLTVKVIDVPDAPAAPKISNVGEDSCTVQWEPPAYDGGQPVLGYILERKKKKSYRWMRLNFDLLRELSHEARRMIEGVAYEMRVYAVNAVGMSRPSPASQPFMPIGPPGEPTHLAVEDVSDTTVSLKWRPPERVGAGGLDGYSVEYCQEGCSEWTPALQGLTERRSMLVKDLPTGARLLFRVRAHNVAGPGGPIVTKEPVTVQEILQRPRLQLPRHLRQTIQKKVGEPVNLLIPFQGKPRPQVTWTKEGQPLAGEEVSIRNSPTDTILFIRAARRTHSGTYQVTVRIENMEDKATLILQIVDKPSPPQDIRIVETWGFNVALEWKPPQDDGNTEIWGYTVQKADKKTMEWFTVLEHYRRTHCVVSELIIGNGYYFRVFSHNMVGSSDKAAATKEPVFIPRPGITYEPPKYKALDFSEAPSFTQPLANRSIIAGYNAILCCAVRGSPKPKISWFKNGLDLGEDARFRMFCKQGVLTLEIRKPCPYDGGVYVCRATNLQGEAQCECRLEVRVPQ
Chain of mouse recombinant C0-C2 protein, phospho-mimetic (mC0-C2^DDD) (mouse) (O70468 other isoform, or with tags, fused parts or gaps): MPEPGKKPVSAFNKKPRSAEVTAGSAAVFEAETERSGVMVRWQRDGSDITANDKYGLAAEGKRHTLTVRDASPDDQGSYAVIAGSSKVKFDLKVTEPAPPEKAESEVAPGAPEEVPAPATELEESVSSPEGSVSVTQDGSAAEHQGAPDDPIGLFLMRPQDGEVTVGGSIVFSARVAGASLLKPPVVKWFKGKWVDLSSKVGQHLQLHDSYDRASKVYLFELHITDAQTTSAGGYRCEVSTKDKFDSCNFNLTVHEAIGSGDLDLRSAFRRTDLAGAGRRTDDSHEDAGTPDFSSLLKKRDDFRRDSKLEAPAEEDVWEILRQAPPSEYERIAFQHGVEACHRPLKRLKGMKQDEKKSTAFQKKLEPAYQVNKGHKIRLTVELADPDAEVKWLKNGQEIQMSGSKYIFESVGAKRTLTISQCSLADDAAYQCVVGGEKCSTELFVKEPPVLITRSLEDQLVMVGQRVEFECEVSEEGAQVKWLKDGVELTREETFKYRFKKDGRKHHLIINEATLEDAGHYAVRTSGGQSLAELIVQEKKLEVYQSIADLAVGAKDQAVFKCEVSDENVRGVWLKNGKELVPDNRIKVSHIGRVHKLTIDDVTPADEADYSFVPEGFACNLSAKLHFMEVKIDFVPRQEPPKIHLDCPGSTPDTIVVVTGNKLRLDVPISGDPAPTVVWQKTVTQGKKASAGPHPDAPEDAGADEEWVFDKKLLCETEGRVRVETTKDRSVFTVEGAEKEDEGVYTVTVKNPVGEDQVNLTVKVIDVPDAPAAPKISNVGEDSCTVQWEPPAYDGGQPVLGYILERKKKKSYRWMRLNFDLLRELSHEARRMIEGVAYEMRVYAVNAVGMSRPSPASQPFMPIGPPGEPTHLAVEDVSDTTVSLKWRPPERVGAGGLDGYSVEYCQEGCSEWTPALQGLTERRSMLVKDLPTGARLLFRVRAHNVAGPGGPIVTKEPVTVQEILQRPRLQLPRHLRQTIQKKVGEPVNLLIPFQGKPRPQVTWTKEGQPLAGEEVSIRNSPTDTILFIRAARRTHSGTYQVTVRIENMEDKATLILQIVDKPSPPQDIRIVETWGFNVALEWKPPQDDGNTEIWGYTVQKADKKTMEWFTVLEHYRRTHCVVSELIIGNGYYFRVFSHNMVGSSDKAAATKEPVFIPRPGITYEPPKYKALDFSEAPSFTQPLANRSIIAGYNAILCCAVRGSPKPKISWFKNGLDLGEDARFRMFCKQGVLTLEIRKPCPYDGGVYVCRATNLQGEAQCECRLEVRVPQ

Regarding “mouse cardiac myosin-binding protein-C (cMyBP-C), mC0-C2 C0-C2 (from UniProt O70468) mC0-C2 DDD”, the entries for the “other: Bmax” value in assay [1] (reference: mC0-C2 AAA) and in assay [1] (reference: mC0-C2 wild type) were “weaker; reference 0.95 ± 0.04” and “weaker; reference 1.02 ± 0.04”, respectively.

B1: human recombinant proximal S2 protein with E930Δ mutation (hS2^E930Δ) (domain or fragment, UniProt P12883 838-963, looked up)
chain: PLLKSAEREKEMASMKEEFTRLKEALEKSEARRKELEEKMVSLLQEKNDLQLQVQAEQDNLADAEERCDQLIKNKIQLEAKVKEMNERLEDEEMNAELTAKKRKLEDECSELKRDIDDLELTLAK
notes: human β-myosin heavy chain (MYH7), proximal S2, residues 838-963, with the HCM-causing deletion of E930; mutation found in HCM patients, introduced by site-directed mutagenesis; coiled coil in low-salt buffer by CD
In the case of B1, the Kd in assay [2] is 8.57 µM; in assay [3], 42.3 µM; in assay [4], 0.97 µM; in assay [5] it was 6.67 µM; in assay [6], 1.22 µM; in assay [7], 0.88 µM. The dissociation constant Kd in assay [8] stood at 1.32 µM. The stoichiometry N in assay [2] was 0.35. Moreover, in assay [4], the stoichiometry (η) based on Bmax, hC0-C2p to hS2 mutant came out at 1.24. Besides, the stoichiometry (η) based on Bmax, hC0-C2 to hS2 mutant compared with hS2^WT in assay [5] turned out to be 1.23.

B2: human recombinant proximal S2 WT protein (hS2^Wt) (domain or fragment, UniProt P12883 838-963, looked up)
chain: PLLKSAEREKEMASMKEEFTRLKEALEKSEARRKELEEKMVSLLQEKNDLQLQVQAEQDNLADAEERCDQLIKNKIQLEAKVKEMNERLEDEEEMNAELTAKKRKLEDECSELKRDIDDLELTLAK
notes: pET28a+ vector; also called WT hS2; human cardiac myosin S2
In the case of B2, the Kd in assay [3] is 4.71 µM; in assay [4] it was 7.35 µM; in assay [5] it was 5.04 µM; in assay [6], 1.81 µM; in assay [7], 2.02 µM; in assay [8], 1.89 µM. For the same molecule, in assay [3], the stoichiometry N was 1.08. Further, the stoichiometry (η) based on Bmax, hC0-C2p to hS2^Wt compared with hC0-C2 to hS2^WT in assay [4] was 1.26.

B3: human recombinant proximal S2 protein with E924K mutation (hS2^E924K) (domain or fragment, UniProt P12883 838-963, looked up)
chain: PLLKSAEREKEMASMKEEFTRLKEALEKSEARRKELEEKMVSLLQEKNDLQLQVQAEQDNLADAEERCDQLIKNKIQLEAKVKEMNKRLEDEEEMNAELTAKKRKLEDECSELKRDIDDLELTLAK
notes: human β-myosin heavy chain (MYH7), proximal S2, residues 838-963, with the HCM-causing mutation E924K; mutation found in HCM patients, introduced by site-directed mutagenesis; coiled coil in low-salt buffer by CD
With B3, the Kd in assay [2] is 16.5 µM; in assay [3], 30.5 µM; in assay [4] it was 0.83 µM; in assay [5], 4.3 µM; in assay [6], 1.48 µM; in assay [7], 0.74 µM. The Kd in assay [8] turned out to be 1.51 µM. Besides, the stoichiometry N in assay [2] is 2.57. Besides, in assay [4], the stoichiometry (η) based on Bmax, hC0-C2p to hS2 mutant came to 1.21. Further, in assay [5], the stoichiometry (η) based on Bmax, hC0-C2 to hS2 mutant compared with hS2^WT amounted to 1.21.

B4: human recombinant proximal S2 protein with R870H mutation (hS2^R870H) (domain or fragment, UniProt P12883 838-963, looked up)
chain: PLLKSAEREKEMASMKEEFTRLKEALEKSEARHKELEEKMVSLLQEKNDLQLQVQAEQDNLADAEERCDQLIKNKIQLEAKVKEMNERLEDEEEMNAELTAKKRKLEDECSELKRDIDDLELTLAK
notes: human β-myosin heavy chain (MYH7), proximal S2, residues 838-963, with the HCM-causing mutation R870H; mutation found in HCM patients, introduced by site-directed mutagenesis; coiled coil in low-salt buffer by CD
Turning to B4, the Kd was 11 µM in assay [2]; 19 µM in assay [3]; 1.26 µM in assay [4]; 6.29 µM in assay [5]; 1.51 µM in assay [6]; 0.79 µM in assay [7]. For the same molecule, the Kd in assay [8] was 1.64 µM. Also, the stoichiometry N was 1.07 in assay [2] and 2.53 in assay [3]. Further, in assay [4], the stoichiometry (η) based on Bmax, hC0-C2p to hS2 mutant stood at 1.17. Besides, the stoichiometry (η) based on Bmax, hC0-C2 to hS2 mutant compared with hS2^WT in assay [5] came out at 1.24.
